Data taken from US20230265151A1, “GIP/GLP1 CO-AGONIST COMPOUNDS” (priority 2020, published 2023).
*1 amine or outer side, *2 acyl side, *3 side chain or, on linkers, in order; H or OH if unused. Where no end group is shown, it is not given here. Side-chain parts run from the residue outwards. [ ]: non-standard residue; d: D form. The star is where a group is joined. αMePhe(2-F) = C[C@](N)(Cc1ccccc1F)C(=O)O; γGlu = O=C(O)[C@H](CCC(=O)[*:2])N[*:1]; C14 diacid = O=C(O)CCCCCCCCCCCCC(=O)*; αMeY = C[C@](N)(Cc1ccc(O)cc1)C(=O)O; αMeF = C[C@](N)(Cc1ccccc1)C(=O)O; αMeL = CC(C)C[C@](C)(N)C(=O)O; Orn = NCCC[C@H](N)C(=O)O; AEEA = NCCOCCOCC(=O)O; Aib = CC(C)(N)C(=O)O

T1: human GIP receptor (human, UniProt P48546 22-466)
T1 sequence (looked up): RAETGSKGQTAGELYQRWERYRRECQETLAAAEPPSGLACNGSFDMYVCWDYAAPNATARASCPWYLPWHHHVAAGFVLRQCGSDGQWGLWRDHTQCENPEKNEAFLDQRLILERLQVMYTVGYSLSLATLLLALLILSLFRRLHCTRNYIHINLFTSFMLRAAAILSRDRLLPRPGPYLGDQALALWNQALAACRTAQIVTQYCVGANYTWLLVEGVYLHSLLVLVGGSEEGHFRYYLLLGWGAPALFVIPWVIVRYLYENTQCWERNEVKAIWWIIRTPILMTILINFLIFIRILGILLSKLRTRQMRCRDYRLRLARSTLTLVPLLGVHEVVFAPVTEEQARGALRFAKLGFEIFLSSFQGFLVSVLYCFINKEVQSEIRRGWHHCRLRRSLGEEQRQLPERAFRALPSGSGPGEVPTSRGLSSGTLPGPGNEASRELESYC


Experiments:
Assay in all cases: cell-based or functional assay
[1] = biological target: human GLP-1 receptor (human, UniProt P43220 24-463)
[2] = biological target: T1, human GIP receptor
[3] = biological target: human glucagon receptor (human, UniProt P47871 26-477)

Row | Binder | cAMP EC50 (1.0% HSA) [1] [nM] | cAMP EC50 (1.0% HSA) [2] [nM] | cAMP EC50 (1.0% HSA) [3] [nM] | cAMP Emax (1.0% HSA) [1] [%] | cAMP Emax (1.0% HSA) [2] [%]
1 | YXEGTXTSDXSIXLDXKAQXEFIXXLIEGGKSSGAPPPS (Aib2, αMeF(2F)6, hTyr10, αMeL13, Orn16, Aib20, D-Glu24, αMeY25; acylated K17, K31 (groups as in name); C-terminal amide) | 16.2 | 1.52 | > 9950 |  | 
2 | YXEGTXTSDXSIXLDXKAQXEFIXXLIEGGKSSGAPPPS (Aib2, αMeF(2F)6, Nle10, αMeL13, Orn16, Aib20, D-Glu24, αMeY25; acylated K17, K31 (groups as in name); C-terminal amide) | 28.5 | 1.2 | > 9950 |  | 
3 | YXEGTXTSDXSIXLDXKAQXEXIXXLIEGGKSSGAPPPS (Aib2, αMeF(2F)6, 4Pal10, αMeL13, Orn16, Aib20, 2ClPhe22, D-Glu24, αMeY25; acylated K17, K31 (groups as in name); C-terminal amide) | 36.9 | 0.744 | > 9950 | 89.7 | 92.8
4 | YXEGTXTSDXSIXLDXKAQXEXIXXLIEGGKSSGAPPPS (Aib2, αMeF(2F)6, 4Pal10, αMeL13, Orn16, Aib20, 3ClPhe22, D-Glu24, αMeY25; acylated K17, K31 (groups as in name); C-terminal amide) | 34 | 1.27 | > 9950 | 85.8 | 
5 | YXEGTXTSDXSIXLDXKAQXEXIXXLIEGGKSSGAPPPS (Aib2, αMeF(2F)6, 4Pal10, αMeL13, Orn16, Aib20, 2FPhe22, D-Glu24, αMeY25; acylated K17, K31 (groups as in name); C-terminal amide) | 47.6 | 0.771 | > 9950 | 98 | 
6 | YXEGTXTSDXSIXLDXKAQXEXIXXLIEGGKSSGAPPPS (Aib2, αMeF(2F)6, 4Pal10, αMeL13, Orn16, Aib20, 3FPhe22, D-Glu24, αMeY25; acylated K17, K31 (groups as in name); C-terminal amide) | 27 | 0.986 | > 9950 | 87.8 | 90.5
7 | YXEGTXTSDXSIXLDXKAQXEXIXXLIEGGKSSGAPPPS (Aib2, αMeF(2F)6, 4Pal10, αMeL13, Orn16, Aib20, 3,5FPhe22, D-Glu24, αMeY25; acylated K17, K31 (groups as in name); C-terminal amide) | 25.5 | 1.05 | > 9950 | 104 | 
8 | YXEGTXTSDXSIXLDXKAQXEXIXXLIEGGKSSGAPPPS (Aib2, αMeF(2F)6, 4Pal10, αMeL13, Orn16, Aib20, 1Nal22, D-Glu24, αMeY25; acylated K17, K31 (groups as in name); C-terminal amide) | 27 | 0.787 | > 9950 | 93 | 90.6
9 | YXEGTXTSDXSIXLDXKAQXEFIXXLIEGGKSSGAPPPS (Aib2, αMeF(2F)6, αMeF(2F)10, αMeL13, Orn16, Aib20, D-Glu24, αMeY25; acylated K17, K31 (groups as in name); C-terminal amide) | 80 | 4.84 | > 9950 |  | 
10 | YXEGTXTSDXSIXLDXKAQXEXIXXLIEGGKSSGAPPPS (Aib2, αMeF(2F)6, 4Pal10, αMeL13, Orn16, Aib20, αMeF(2F)22, D-Glu24, αMeY25; acylated K17, K31 (groups as in name); C-terminal amide) | 209 | 0.591 | > 9950 |  | 80.3
11 | YXEGTXTSDXXIXLDXKAQXEFIXXLIEGGKSSGAPPPS (Aib2, αMeF(2F)6, 4Pal10, Aib11, αMeL13, Orn16, Aib20, D-Glu24, αMeY25; acylated K17, K31 (groups as in name); C-terminal amide) | 27.7 | 1.49 | > 9950 | 108 | 94.2
12 | YXEGTXTSDVSIXLDXKAQXEFIXXLIEGGKSSGAPPPS (Aib2, αMeF(2F)6, αMeL13, Orn16, Aib20, D-Glu24, αMeY25; acylated K17, K31 (groups as in name); C-terminal amide) | 23.4 | 3.81 | > 9950 | 96.6 | 104
13 | YXEGTXTSDVSIXLDXKAQXEXIXXLIEGGKSSGAPPPS (Aib2, αMeF(2F)6, αMeL13, Orn16, Aib20, αMeF22, D-Glu24, αMeY25; acylated K17, K31 (groups as in name); C-terminal amide) | 76.8 | 2.64 | > 9950 | 108 | 102
14 | Y[Aib]EGT[αMePhe(2-F)]TSDV[Aib]I[αMeL]LD[Orn]K([AEEA-AEEA-γGlu-C14 diacid])AQ[Aib]E[αMeF]I[dE][αMeY]LIEGGK([AEEA-AEEA-γGlu-C14 diacid])SSGAPPPS-NH2 | 66 | 5.58 | > 9950 |  | 92
15 | YXEGTXTSDXSIXLDXKAQXEXIXXLIEGGKSSGAPPPS (Aib2, αMeF(2F)6, Ac5c10, αMeL13, Orn16, Aib20, αMeF22, D-Glu24, αMeY25; acylated K17, K31 (groups as in name); C-terminal amide) | 145 | 2.81 | > 9950 | 113 | 
16 | YXEGTXTSDXSIXLDXKAQXEFIXXLIEGGKSSGAPPPS (Aib2, αMeF(2F)6, Ac4c10, αMeL13, Orn16, Aib20, D-Glu24, αMeY25; acylated K17, K31 (groups as in name); C-terminal amide) | 8.84 | 4.68 | > 9950 | 84 | 

Row | Binder | cAMP EC50 (1.0% HSA) [1] [nM] | cAMP EC50 (1.0% HSA) [2] [nM] | cAMP EC50 (1.0% HSA) [3] [nM] | cAMP Emax (1.0% HSA) [1] [%] | cAMP Emax (1.0% HSA) [2] [%]
17 | YXEGTXTSDXSIXLDXKAQXEFIXXLIEGGKSSGAPPPS (Aib2, αMeF(2F)6, ChG10, αMeL13, Orn16, Aib20, D-Glu24, αMeY25; acylated K17, K31 (groups as in name); C-terminal amide) | 227 | 5.49 | > 9950 |  | 
18 | YXEGTXTSDXSIXLDXKAQXEFIXXLIEGGKSSGAPPPS (Aib2, αMeF(2F)6, ChA10, αMeL13, Orn16, Aib20, D-Glu24, αMeY25; acylated K17, K31 (groups as in name); C-terminal amide) | 58.1 | 4.97 | > 9950 |  | 
19 | YXEGTXTSDXSIXLDXKAQXEXIXXLIEGGKSSGAPPPS (Aib2, αMeF(2F)6, 4Pal10, αMeL13, Orn16, Aib20, 2Nal22, D-Glu24, αMeY25; acylated K17, K31 (groups as in name); C-terminal amide) | 20 | 2.49 | > 9950 | 81.1 | 
20 | YXEGTXTSDXGIXLDXKAQXEFIXXLIEGGKSSGAPPPS (Aib2, αMeF(2F)6, 4Pal10, αMeL13, Orn16, Aib20, D-Glu24, αMeY25; acylated K17, K31 (groups as in name); C-terminal amide) | 402 | 2.61 | > 9950 | 123 | 98.3
21 | YXEGTXTSDXSIXLDXKGQXEFIXXLIEGGKSSGAPPPS (Aib2, αMeF(2F)6, 4Pal10, αMeL13, Orn16, Aib20, D-Glu24, αMeY25; acylated K17, K31 (groups as in name); C-terminal amide) | 367 | 2.36 | > 9950 |  | 96.9
22 | YXEGTXTSDXSIXLDXKAQXGFIXXLIEGGKSSGAPPPS (Aib2, αMeF(2F)6, 4Pal10, αMeL13, Orn16, Aib20, D-Glu24, αMeY25; acylated K17, K31 (groups as in name); C-terminal amide) | 35.5 | 0.515 | > 9950 |  | 94.2
23 | YXEGTXTSDXSIXLDXKAQXEFIGXLIEGGKSSGAPPPS (Aib2, αMeF(2F)6, 4Pal10, αMeL13, Orn16, Aib20, αMeY25; acylated K17, K31 (groups as in name); C-terminal amide) | 12.3 | 0.52 | > 9950 | 95.8 | 95.9
24 | YXEGTXTSDXSIXLDXKAQXXFIXXLIEGGKSSGAPPPS (Aib2, αMeF(2F)6, 4Pal10, αMeL13, Orn16, Aib20, Orn21, D-Glu24, αMeY25; acylated K17, K31 (groups as in name); C-terminal amide) | 11 | 0.35 | > 9950 |  | 81.3
25 | YXEGTXTSDXSIXLDXKAQXEFIXXLIXGGKSSGAPPPS (Aib2, αMeF(2F)6, 4Pal10, αMeL13, Orn16, Aib20, D-Glu24, αMeY25, Orn28; acylated K17, K31 (groups as in name); C-terminal amide) | 17.3 | 0.306 | > 9950 | 112 | 87.5
26 | YXEGTXTSDXSIXLDXKAQXEFIXXLIEGGKSSGAPPPX (Aib2, αMeF(2F)6, 4Pal10, αMeL13, Orn16, Aib20, D-Glu24, αMeY25, Orn39; acylated K17, K31 (groups as in name); C-terminal amide) | 70.5 | 1.34 | > 9950 | 103 | 93
27 | YXEGTXTSDXSIXLDXKAQXXFIXXLIEGGKSSGAPPPS (Aib2, αMeF(2F)6, 4Pal10, αMeL13, Orn16, Aib20, 4Pal21, D-Glu24, αMeY25; acylated K17, K31 (groups as in name); C-terminal amide) | 36 | 0.718 | > 9950 |  | 89.6
28 | YXEGTXTSDXSIXLDXIAQXEFIKXLIEGGPSSGAPPPSK (Aib2, αMeF(2F)6, 4Pal10, αMeL13, Orn16, Aib20, αMeY25; acylated K24, K40 (groups as in name); C-terminal amide) | 21.2 | 1.24 | > 9950 | 109 | 80.7
29 | YXEGTXTSDXXIXLDXKAQXEFIXXLIEGGKSSGAPPPS (Aib2, αMeF(2F)6, 4Pal10, Dap11, αMeL13, Orn16, Aib20, D-Glu24, αMeY25; acylated K17, K31 (groups as in name); C-terminal amide) | 70 | 2.45 | > 9950 | 100 | 77.1
30 | YXEGTXTSDYXIXLDXKAQXEFIXXLIEGGKSSGAPPPS (Aib2, αMeF(2F)6, Dap11, αMeL13, Orn16, Aib20, D-Glu24, αMeY25; acylated K17, K31 (groups as in name); C-terminal amide) | 26.6 | 2.7 | > 9950 |  | 83.7
31 | YXEGTXTSDXXIXLDXKAQXEFIXXLIEGGKSSGAPPPS (Aib2, αMeF(2F)6, 4Pal10, Tle11, αMeL13, Orn16, Aib20, D-Glu24, αMeY25; acylated K17, K31 (groups as in name); C-terminal amide) | 62.2 | 6.09 | > 9950 | 109 | 75.3
32 | YXEGTXTSDXSIXLDXIAQXEFIXXLIKGGPSSGAPPPSK (Aib2, αMeF(2F)6, 4Pal10, αMeL13, Orn16, Aib20, D-Glu24, αMeY25; acylated K28, K40 (groups as in name); C-terminal amide) | 3.03 | 0.242 | > 9950 | 98.1 | 77.6
